The text below walks through data of patent US10428140B2, “Anti-EphA4 antibody” (EISAI R&D MANAGEMENT CO., LTD., priority 2015, dated 2019).

Common to all, as to test: Selectivity ELISA of humanized antibodies for human Eph receptor
What all share (format): binding
Details in all cases: coated protein 1 nM
(In general: ELISA stands for enzyme-linked immunosorbent assay.)

For assay [1], the target named is T1, human EphA2 (Homo sapiens, UniProt P29317).
T1 construct: a protein of the extracellular region of each human Eph receptor fused with the SEAP protein and the His tag; made in house; host or cells: Expi293F cells (culture supernatant)
In outline:
(§1)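 Read-out is A450 after TMB development stopped with 1N H2SO4. Plates bore anti-His-captured human Eph extracellular region-SEAP-His proteins at 1 nM final, made in Expi293F cells. Humanized antibody binding ran 1 h at room temperature before HRP-labeled anti-IgG detection.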

Assay [2] has as its target SEAP-His (Homo sapiens, UniProt P05187). In outline:
as §1

Assay [3] deals with T2, human EphB3 (Homo sapiens, UniProt P54753).
T2 construct: a protein of the extracellular region of each human Eph receptor fused with the SEAP protein and the His tag; made in house; host or cells: Expi293F cells
T2 sequence (P54753 34-559 limits assumed): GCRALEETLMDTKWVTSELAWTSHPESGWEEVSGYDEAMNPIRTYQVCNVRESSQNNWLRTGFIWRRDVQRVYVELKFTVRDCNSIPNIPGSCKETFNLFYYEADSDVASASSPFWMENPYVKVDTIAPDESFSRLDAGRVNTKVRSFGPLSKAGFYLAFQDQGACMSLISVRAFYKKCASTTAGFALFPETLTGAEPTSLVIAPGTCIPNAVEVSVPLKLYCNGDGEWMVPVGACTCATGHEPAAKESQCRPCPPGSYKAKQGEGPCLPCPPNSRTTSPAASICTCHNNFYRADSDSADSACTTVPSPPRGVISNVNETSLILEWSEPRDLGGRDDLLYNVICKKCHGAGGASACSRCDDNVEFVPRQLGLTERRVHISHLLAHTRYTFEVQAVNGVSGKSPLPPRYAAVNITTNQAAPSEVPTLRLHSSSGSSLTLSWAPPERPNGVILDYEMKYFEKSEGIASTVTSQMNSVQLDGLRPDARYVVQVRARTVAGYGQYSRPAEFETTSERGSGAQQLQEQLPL
In outline:
as §1

The target in assay [4] is T3, human EphA8 (Homo sapiens, UniProt P29322).
T3 construct: a protein of the extracellular region of each human Eph receptor fused with the SEAP protein and the His tag; made in house; host or cells: Expi293F cells (culture supernatant)
T3 sequence (P29322 28-542 limits assumed): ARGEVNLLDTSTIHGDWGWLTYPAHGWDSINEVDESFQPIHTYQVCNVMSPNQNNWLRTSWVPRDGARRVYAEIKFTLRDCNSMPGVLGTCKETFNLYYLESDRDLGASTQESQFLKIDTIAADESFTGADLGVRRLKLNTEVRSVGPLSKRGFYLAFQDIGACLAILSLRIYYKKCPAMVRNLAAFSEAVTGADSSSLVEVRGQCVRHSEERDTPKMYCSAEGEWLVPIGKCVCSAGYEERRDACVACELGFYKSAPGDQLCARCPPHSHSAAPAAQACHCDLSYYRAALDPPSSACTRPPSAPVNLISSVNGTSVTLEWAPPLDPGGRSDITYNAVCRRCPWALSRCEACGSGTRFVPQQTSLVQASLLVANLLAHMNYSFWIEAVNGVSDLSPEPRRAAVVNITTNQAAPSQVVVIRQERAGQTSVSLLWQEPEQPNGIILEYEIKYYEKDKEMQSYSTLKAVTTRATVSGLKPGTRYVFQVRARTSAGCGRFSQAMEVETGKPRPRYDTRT
In outline: as §1

Assay [5] has as its target T4, human EphA3 (Homo sapiens, UniProt P29320).
T4 construct: a protein of the extracellular region of each human Eph receptor fused with the SEAP protein and the His tag; made in house; host or cells: Expi293F cells (culture supernatant)
T4 sequence (P29320 21-541 limits assumed): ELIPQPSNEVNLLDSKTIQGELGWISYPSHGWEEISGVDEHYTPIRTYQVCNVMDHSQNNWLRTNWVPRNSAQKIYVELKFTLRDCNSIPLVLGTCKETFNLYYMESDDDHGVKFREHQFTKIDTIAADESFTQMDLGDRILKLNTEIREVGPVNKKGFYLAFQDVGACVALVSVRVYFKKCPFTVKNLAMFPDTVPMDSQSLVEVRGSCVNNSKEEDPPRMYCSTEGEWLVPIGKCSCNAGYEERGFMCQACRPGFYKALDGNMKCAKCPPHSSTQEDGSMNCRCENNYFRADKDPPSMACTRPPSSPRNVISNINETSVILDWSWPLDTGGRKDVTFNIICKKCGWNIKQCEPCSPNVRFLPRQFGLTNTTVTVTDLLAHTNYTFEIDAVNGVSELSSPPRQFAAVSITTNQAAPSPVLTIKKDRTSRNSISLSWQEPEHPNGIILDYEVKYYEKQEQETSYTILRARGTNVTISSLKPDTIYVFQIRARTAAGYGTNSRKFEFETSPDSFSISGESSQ
In outline: as §1

SEAP-His, sequence (P05187 23-511 limits assumed): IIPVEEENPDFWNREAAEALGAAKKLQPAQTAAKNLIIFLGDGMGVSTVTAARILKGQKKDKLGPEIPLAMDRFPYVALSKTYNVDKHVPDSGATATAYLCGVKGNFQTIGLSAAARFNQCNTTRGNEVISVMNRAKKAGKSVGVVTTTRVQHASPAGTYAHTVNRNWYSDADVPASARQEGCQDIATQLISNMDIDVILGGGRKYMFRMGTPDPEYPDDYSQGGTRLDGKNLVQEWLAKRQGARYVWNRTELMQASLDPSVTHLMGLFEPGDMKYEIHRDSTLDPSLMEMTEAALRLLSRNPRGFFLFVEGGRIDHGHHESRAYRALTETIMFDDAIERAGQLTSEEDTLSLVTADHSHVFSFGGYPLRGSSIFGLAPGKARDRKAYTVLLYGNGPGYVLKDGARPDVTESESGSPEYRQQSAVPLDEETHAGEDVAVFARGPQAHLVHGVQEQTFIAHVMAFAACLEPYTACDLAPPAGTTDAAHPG
T1 sequence (P29317 24-537 limits assumed): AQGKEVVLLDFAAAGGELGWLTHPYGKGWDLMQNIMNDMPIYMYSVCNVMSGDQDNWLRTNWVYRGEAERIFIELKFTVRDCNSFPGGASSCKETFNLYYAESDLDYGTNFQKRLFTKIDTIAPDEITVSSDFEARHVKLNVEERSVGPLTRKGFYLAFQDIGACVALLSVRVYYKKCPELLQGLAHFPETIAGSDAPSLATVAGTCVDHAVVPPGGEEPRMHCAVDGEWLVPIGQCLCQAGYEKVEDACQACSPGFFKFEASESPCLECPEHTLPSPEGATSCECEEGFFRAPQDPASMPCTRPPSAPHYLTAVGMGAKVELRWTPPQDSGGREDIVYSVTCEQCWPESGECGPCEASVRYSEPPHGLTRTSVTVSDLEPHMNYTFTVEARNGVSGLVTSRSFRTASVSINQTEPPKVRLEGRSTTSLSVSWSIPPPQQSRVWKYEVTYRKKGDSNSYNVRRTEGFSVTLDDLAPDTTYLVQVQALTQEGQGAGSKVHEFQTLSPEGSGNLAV

B1: 92 (antibody, V domains shown)
VL: DIQMTQSPSSLSASVGDRVTITCRASENIYRNLAWYQQKPGKAPQLLLYAATNLADGVPSRFSGSGSGTDYTLTISSLQPEDFATYYCQHFWGTPWTFGQGTKVEIK
VH: QIQLVQSGSELKKPGASVKVSCKASGYTFTDYSMHWVRQAPGQGLKWMGWINTETGEPTYADDFKGRFVFSLDTSVSTAYLQISSLKAEDTAVYYCARIPLYYYGSRYWYFDVWGQGTTVTVSS
modifications: constant regions without entry; synthetic humanized antibody light chain variable region sequence; synthetic humanized antibody heavy chain variable region sequence
Consider B1, for which the “hEphA2-SEAP-: absorbance at 450 nm, percentage with respect to hEphA4-SEAP-His as 100%” value in assay [1] was determined as 6.9%. Moreover, the “SEAP-His: absorbance at 450 nm, percentage with respect to hEphA4-SEAP-His as 100%” value in assay [2] is on record as 6.5%. In assay [3], the “hEphB3-SEAP-: absorbance at 450 nm, percentage with respect to hEphA4-SEAP-His as 100%” value came to 6.9%. Also, the “hEphA8-SEAP-: absorbance at 450 nm, percentage with respect to hEphA4-SEAP-His as 100%” value in assay [4] was found to be 6.7%. In addition, the “hEphA3-SEAP-: absorbance at 450 nm, percentage with respect to hEphA4-SEAP-His as 100%” value in assay [5] worked out at 6.5%.

B2: 71 (antibody, V domains shown)
VH: QIQLVQSGSELKKPGASVKVSCKASGYTFTDYSMHWVRQAPGQGLKWMGWINTETGEPTYAQGFTGRFVFSLDTSVSTAYLQISSLKAEDTAVYYCARIPLYYYGSRYWYFDVWGQGTTVTVSS
VL: EIVMTQSPATLSVSPGERATLSCRASENIYRNLAWYQQKPGQSPRLLIYAATNLADGIPARFSGSGSGTEYTLTISSLQSEDFAVYYCQHFWGTPWTFGQGTKVEIK
modifications: synthetic humanized antibody heavy chain variable region sequence; synthetic humanized antibody light chain variable region sequence
Regarding B2, the “hEphA2-SEAP-: absorbance at 450 nm, percentage with respect to hEphA4-SEAP-His as 100%” value in assay [1] was determined as 5.7%. Moreover, the “SEAP-His: absorbance at 450 nm, percentage with respect to hEphA4-SEAP-His as 100%” value in assay [2] stood at 5.6%. Further, the “hEphB3-SEAP-: absorbance at 450 nm, percentage with respect to hEphA4-SEAP-His as 100%” value in assay [3] was found to be 5.5%. For the same molecule, the “hEphA8-SEAP-: absorbance at 450 nm, percentage with respect to hEphA4-SEAP-His as 100%” value in assay [4] is listed as 5.3%. In addition, in assay [5], the “hEphA3-SEAP-: absorbance at 450 nm, percentage with respect to hEphA4-SEAP-His as 100%” value turned out to be 5.6%.

B3: 94 (antibody, V domains shown)
VL: EIVMTQSPATLSVSPGERATLSCRASENIYRNLAWYQQKPGQSPRLLIYAATNLADGIPARFSGSGSGTEYTLTISSLQSEDFAVYYCQHFWGTPWTFGQGTKVEIK
VH: QVQLVQSGSELKKPGASVKVSCKASGYTFTDYSMHWVRQAPGQGLKWMGWINTETGEPTYAQGFTGRFVFSLDTSVSTAYLQISSLKAEDTAVYYCARIPLYYYGSRYWYFDVWGQGTTVTVSS
modifications: constant regions without entry; synthetic humanized antibody light chain variable region sequence; synthetic humanized antibody heavy chain variable region sequence
Regarding B3, the “hEphA2-SEAP-: absorbance at 450 nm, percentage with respect to hEphA4-SEAP-His as 100%” value in assay [1] came to 6.4%. Besides, in assay [2], the “SEAP-His: absorbance at 450 nm, percentage with respect to hEphA4-SEAP-His as 100%” value is recorded as 6.7%. Further, in assay [3], the “hEphB3-SEAP-: absorbance at 450 nm, percentage with respect to hEphA4-SEAP-His as 100%” value is on record as 6.7%. In addition, the “hEphA8-SEAP-: absorbance at 450 nm, percentage with respect to hEphA4-SEAP-His as 100%” value in assay [4] turned out to be 7.0%. In addition, the “hEphA3-SEAP-: absorbance at 450 nm, percentage with respect to hEphA4-SEAP-His as 100%” value in assay [5] is 6.8%.

B4: 93 (antibody, V domains shown)
VL: EIVMTQSPATLSVSPGERATLSCRASENIYRNLAWYQQKPGQSPRLLIYAATNLADGIPARFSGSGSGTEYTLTISSLQSEDFAVYYCQHFWGTPWTFGQGTKVEIK
VH: QVQLVQSGSELKKPGASVKVSCKASGYTFTDYSMHWVRQAPGQGLEWMGWINTETGEPTYAQGFTGRFVFSLDTSVSTAYLQISSLKAEDTAVYYCARIPLYYYGSRYWYFDVWGQGTTVTVSS
modifications: constant regions without entry; synthetic humanized antibody light chain variable region sequence; synthetic humanized antibody heavy chain variable region sequence
As for B4, in assay [1], the “hEphA2-SEAP-: absorbance at 450 nm, percentage with respect to hEphA4-SEAP-His as 100%” value was determined as 5.0%. Further, the “SEAP-His: absorbance at 450 nm, percentage with respect to hEphA4-SEAP-His as 100%” value in assay [2] amounted to 5.0%. The “hEphB3-SEAP-: absorbance at 450 nm, percentage with respect to hEphA4-SEAP-His as 100%” value in assay [3] was determined as 5.1%. For the same molecule, the “hEphA8-SEAP-: absorbance at 450 nm, percentage with respect to hEphA4-SEAP-His as 100%” value in assay [4] came out at 5.0%. In assay [5], the “hEphA3-SEAP-: absorbance at 450 nm, percentage with respect to hEphA4-SEAP-His as 100%” value is given as 5.1%.

B5: 96 (antibody, V domains shown)
VL: EIVMTQSPATLSVSPGERATLSCRASENIYRNLAWYQQKPGQSPRLLIYAATNLADGIPARFSGSGSGTEYTLTISSLQSEDFAVYYCQHFWGTPWTFGQGTKVEIK
VH: QVQLVQSGSELKKPGASVKVSCKASGYTFTDYSMHWVRQAPGQGLKWMGWINTETGEPTYADDFKGRFVFSLDTSVSTAYLQISSLKAEDTAVYYCARIPLYYYGSRYWYFDVWGQGTTVTVSS
modifications: constant regions without entry; synthetic humanized antibody light chain variable region sequence; synthetic humanized antibody heavy chain variable region sequence
Consider B5, for which the “hEphA2-SEAP-: absorbance at 450 nm, percentage with respect to hEphA4-SEAP-His as 100%” value in assay [1] is 5.3%. Besides, in assay [2], the “SEAP-His: absorbance at 450 nm, percentage with respect to hEphA4-SEAP-His as 100%” value was 5.5%. The “hEphB3-SEAP-: absorbance at 450 nm, percentage with respect to hEphA4-SEAP-His as 100%” value in assay [3] is listed as 5.6%. In assay [4], the “hEphA8-SEAP-: absorbance at 450 nm, percentage with respect to hEphA4-SEAP-His as 100%” value came out at 5.4%. In assay [5], the “hEphA3-SEAP-: absorbance at 450 nm, percentage with respect to hEphA4-SEAP-His as 100%” value is 5.5%.

B6: 95 (antibody, V domains shown)
VL: EIVMTQSPATLSVSPGERATLSCRASENIYRNLAWYQQKPGQSPRLLIYAATNLADGIPARFSGSGSGTEYTLTISSLQSEDFAVYYCQHFWGTPWTFGQGTKVEIK
VH: QVQLVQSGSELKKPGASVKVSCKASGYTFTDYSMHWVRQAPGQGLEWMGWINTETGEPTYADDFKGRFVFSLDTSVSTAYLQISSLKAEDTAVYYCARIPLYYYGSRYWYFDVWGQGTTVTVSS
modifications: constant regions without entry; synthetic humanized antibody light chain variable region sequence; synthetic humanized antibody heavy chain variable region sequence
Turning to B6, the “hEphA2-SEAP-: absorbance at 450 nm, percentage with respect to hEphA4-SEAP-His as 100%” value in assay [1] was found to be 4.2%. The “SEAP-His: absorbance at 450 nm, percentage with respect to hEphA4-SEAP-His as 100%” value in assay [2] is 4.4%. Moreover, the “hEphB3-SEAP-: absorbance at 450 nm, percentage with respect to hEphA4-SEAP-His as 100%” value in assay [3] is on record as 4.6%. Besides, the “hEphA8-SEAP-: absorbance at 450 nm, percentage with respect to hEphA4-SEAP-His as 100%” value in assay [4] is listed as 4.4%. Further, in assay [5], the “hEphA3-SEAP-: absorbance at 450 nm, percentage with respect to hEphA4-SEAP-His as 100%” value is recorded as 4.8%.
